# Data published in patent US20260234234A1 (QILU PUGET SOUND BIOTHERAPEUTICS, published 2026).
# Like-named read-outs stand apart in the source and are kept apart here.
# T1: His6-tagged cyIL-33 (Ser112-Ile270), QB10976 (cynomolgus monkey)
# T1 construct: Entry includes N-terminal Avitag, FLAG and His6 tags; isoform X1, NCBI XP_005581824; also called cyIL-33 antigen
# T1 chain: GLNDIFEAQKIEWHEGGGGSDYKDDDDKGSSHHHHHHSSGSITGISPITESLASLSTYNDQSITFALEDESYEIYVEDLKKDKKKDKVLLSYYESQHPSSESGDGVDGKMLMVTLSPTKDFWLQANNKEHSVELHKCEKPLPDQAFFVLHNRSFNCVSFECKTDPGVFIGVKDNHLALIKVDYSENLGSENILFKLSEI
# T2: Avitag_c-MYC_His6-tagged hIL-33 (Ser112-Thr270), QB10975 (human)
# T2 construct: Entry includes N-terminal Avitag, c-MYC and His6 tags; reduced with DTT to the active form; also called active hIL-33; reduced hIL-33
# T2 chain: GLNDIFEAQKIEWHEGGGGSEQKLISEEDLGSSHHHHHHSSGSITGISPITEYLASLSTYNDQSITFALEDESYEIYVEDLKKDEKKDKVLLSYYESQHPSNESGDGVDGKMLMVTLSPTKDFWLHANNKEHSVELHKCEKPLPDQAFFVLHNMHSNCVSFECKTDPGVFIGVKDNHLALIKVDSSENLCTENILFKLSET
# T3: Avitag_c-MYC_His6_hTSLP QB11033 with deletion of 126KRRKR130 (human)
# T3 chain: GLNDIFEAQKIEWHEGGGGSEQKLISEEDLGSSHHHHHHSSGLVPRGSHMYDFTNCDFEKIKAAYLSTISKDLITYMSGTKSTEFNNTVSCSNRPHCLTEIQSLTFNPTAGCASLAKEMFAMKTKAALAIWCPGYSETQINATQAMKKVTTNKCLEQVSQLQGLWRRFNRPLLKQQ
# T4: Avitag_FLAG_His6_cyTSLP QB11633 with mutations of R127A + R130S (cynomolgus monkey)
# T4 chain: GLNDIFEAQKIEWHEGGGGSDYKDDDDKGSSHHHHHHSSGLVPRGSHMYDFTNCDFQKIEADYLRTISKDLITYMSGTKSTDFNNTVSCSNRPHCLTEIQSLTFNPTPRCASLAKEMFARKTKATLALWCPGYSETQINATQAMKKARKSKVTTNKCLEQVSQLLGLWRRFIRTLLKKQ
# T5: Avitag_FLAG_His6_cyTSLP QB10974 with deletion of 126KRRKR130 (cynomolgus monkey)
# T5 chain: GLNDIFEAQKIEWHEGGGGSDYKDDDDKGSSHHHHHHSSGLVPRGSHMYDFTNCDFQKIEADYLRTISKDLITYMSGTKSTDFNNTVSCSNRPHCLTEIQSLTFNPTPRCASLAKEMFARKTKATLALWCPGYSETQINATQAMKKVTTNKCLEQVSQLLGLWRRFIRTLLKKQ
# T6: Avitag_FLAG_His6_cyTSLP QB11632 (wild type) (cynomolgus monkey)
# T6 chain: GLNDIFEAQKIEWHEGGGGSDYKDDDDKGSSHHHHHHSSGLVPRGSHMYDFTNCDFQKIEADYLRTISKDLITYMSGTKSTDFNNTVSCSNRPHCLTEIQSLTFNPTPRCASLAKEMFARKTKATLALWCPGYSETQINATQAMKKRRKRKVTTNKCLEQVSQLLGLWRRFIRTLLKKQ
# Tests used:
# [1] = biological target: T1, His6-tagged cyIL-33 (Ser112-Ile270), …; assay: SPR, captured antibody, cyIL-33 analyte, 25 C, 1:1 fit
# Description: (§1) The polyclonal goat-anti-human IgG (Fc specific) antibodies were immobilized on a CM4 chip surface using a standard amine coupling method. […] After each cycle, the chip was regenerated with 10 mM glycine-HCl, pH 1.5. The results were analyzed using Biacore T200 evaluation software V3.2. Results were double referenced and fit to a 1:1 interaction model.
# (§2) The kinetic binding data was obtained using SPR on a Biacore T200 equipment. […] The complex was allowed to associate for 3 min and dissociate for up to 1 hr. At the end of each cycle the CM4 chips were regenerated with 10 mM glycine pH1.5. The T200 Evaluation software V3.2 was used to align and double reference the data.
# [2] = biological target: T2, Avitag_c-MYC_His6-tagged hIL-33 …; assay: SPR, captured antibody, hIL-33 analyte, 37 C, 1:1 fit
# Description: as §1, §2
# [3] = biological target: T7, Avitag_c-MYC_His6_hTSLP QB11631 with mutations of R127A + R130S (human); assay: SPR (Biacore), hTSLP (R127A+R130S) antigen
# T7 construct: Substitutions and tags already in the entry; also called hTSLP (R127A+R130S)
# [4] = biological target: T7, Avitag_c-MYC_His6_hTSLP QB11631 with …; assay: SPR (Biacore)
# [5] = biological target: T7, Avitag_c-MYC_His6_hTSLP QB11631 with …; assay: cell-based or functional assay
# [6] = biological target: T3, Avitag_c-MYC_His6_hTSLP QB11033 with …; assay: cell-based or functional assay
# [7] = biological target: Avitag_c-MYC_His6_hTSLP (wild type) QB11630 (human); assay: cell-based or functional assay
# [8] = biological target: T4, Avitag_FLAG_His6_cyTSLP QB11633 with …; assay: cell-based or functional assay
# [9] = biological target: T5, Avitag_FLAG_His6_cyTSLP QB10974 with …; assay: cell-based or functional assay
# [10] = biological target: T6, Avitag_FLAG_His6_cyTSLP QB11632 (wild …); assay: cell-based or functional assay
# [11] = biological target: T4, Avitag_FLAG_His6_cyTSLP QB11633 with …; assay: cell-based or functional assay
# [12] = biological target: T5, Avitag_FLAG_His6_cyTSLP QB10974 with …; assay: cell-based or functional assay
# [13] = biological target: T6, Avitag_FLAG_His6_cyTSLP QB11632 (wild …); assay: cell-based or functional assay
# [14] = biological target: T7, Avitag_c-MYC_His6_hTSLP QB11631 with …; assay: cell-based or functional assay; remark: listed apart in the source
# [15] = biological target: T3, Avitag_c-MYC_His6_hTSLP QB11033 with …; assay: cell-based or functional assay
# [16] = biological target: Avitag_c-MYC_His6_hTSLP (wild type) QB11630 (human); assay: cell-based or functional assay; remark: listed apart in the source
# [17] = biological target: hTSLP antigen, version not stated (human, UniProt Q969D9 29-159, limits assumed); assay: cell-based or functional assay
binder,measurement,setting,value
"anti-hIL-33 antibody QB11061 (antibody, human IgG1, kappa, V domains shown, QB11004 with Q41P in VH-FW2) VH: EVQLLESGGGLVQPGGSLRLSCAASGFTFYSSAMSWVRQTPGKGLEWVSTISSGGSNTYYPDSVKGRFTISRDNSKNTLYLQMNSLGAEDTAVYYCASAYYGRRYDAMDYWGQGTLVTVSS VL: DVVMTQSPPSLPVTLGQSASISCKSSKSLLHSNGNTYLYWFQQRPGQSPQLLIYRMSNLASGVPDRFSGSGSGTDFTLKISRVEAEDVGVYYCMQHLENPYTFGQGTKVEIKR",Kd,[1],4.75 nM
same,koff,[1],0.000893 s⁻¹
same,kon,[1],188000 M⁻¹ s⁻¹
same,Kd,[2],0.306 nM
same,koff,[2],0.000567 s⁻¹
same,kon,[2],1.85e+06 M⁻¹ s⁻¹
"anti-hTSLP antibody QB11341, humanized clone 135F1 (antibody, human IgG4 S228P, kappa, V domains shown, also called QB1341; top clone) VH: EVQLVESGGGLVQPGGSLRLSCAASGFDFSSYWISWVRQAPGKGPEWIASIDIDIDIADYASWAKGRFTISRDNSKNTLYLQMNSLRAEDTAVYYCVRNLGLWGPGTLVTVSS VL: DIQMTQSPSSLSASVGDRVTITCQSSQNVYDKDALAWYQHKPGKRPKLLIYEASKLASGVPSRFSGSGSGTHFTLTISSLQPEDAATYYCAGTFIDNIYTFGGGTKVEIKR",Kd,[3],1.76 nM
same,koff,[3],0.00148 s⁻¹
same,kon,[3],842000 M⁻¹ s⁻¹
same,fold lower binding affinity against comparator antibody QB10985,[4],~10 fold
same,IC50 (nM) for inhibition of CCL17 secretion,[5],0.626 nM
same,IC50 (nM) for inhibition of CCL17 secretion,[6],0.361 nM
same,IC50 (nM) for inhibition of CCL17 secretion,[7],0.333 nM
same,IC50 (nM) for inhibition of CCL17 secretion,[8],0.93 nM
same,IC50 (nM) for inhibition of CCL17 secretion,[9],0.712 nM
same,IC50 (nM) for inhibition of CCL17 secretion,[10],0.888 nM
"anti-hTSLP antibody QB11548, humanized clone 135F1 after yeast display (antibody, human IgG4 S228P, kappa, V domains shown) VH: EVQLVESGGGLVQPGGSLRLSCAASGFDFSSYWISWVRQAPGKGPEWIASIDIDIDIADYASWAKGRFTISRDNSKNTLYLQMNSLRAEDTAVYYCVRNLGLWGPGTLVTVSS VL: DIQMTQSPSSLSASVGDRVTITCQSSQNVYDKDALAWYQHKPGKRPKLLIYEASRLASGVPSRFSGSGSGTHFTLTISSLQPEDAATYYCAGTRIDNIYTFGGGTKVEIKR",IC50 (nM) for inhibition of CCL17 secretion,[11],0.464 nM
same,IC50 (nM) for inhibition of CCL17 secretion,[12],0.251 nM
same,IC50 (nM) for inhibition of CCL17 secretion,[13],0.254 nM
same,IC50 (nM) for inhibition of CCL17 secretion,[14],0.286 nM
same,IC50 (nM) for inhibition of CCL17 secretion,[15],0.0921 nM
same,IC50 (nM) for inhibition of CCL17 secretion,[16],0.0757 nM
"rabbit anti-hTSLP monoclonal antibody clone 135F1 (antibody, V domains shown) VH: QEQLEESGGDLVKPEGSLTLTCKASGFDFSSYWISWVRQAPGKRPEWIACIDSDIDSADYASWAKGRFTMSRTSSTTVTLQMTSLTAADTATYFCVRNLGLWGPGTLVTVSS VL: AQVLTQTASPVSAAVGGTVTINCQSSQNVYDKDALAWYQHKPGQRPKLLIYEASKLASGVPSRFSGSGAGTQFTLTISGVQCDDAATYYCAGTFIDNIYTFGGGTEVVVKG","IC50, inhibition of hTSLP-induced CCL17 release from human monocytes",[17],4.24 nM
